# Source: patent US20090156542
# pKd: −log10 of the molar value.
# How the values were obtained:
# [1] = biological target: biotinylated human D-MCP-1 (mirror-image D-protein) (Homo sapiens) (UniProt P13500); test: pulldown
# [2] = biological target: biotinylated murine D-MCP-1 (mirror-image D-protein) (Mus musculus) (UniProt P10148); test: pulldown; conditions: subnanomolar
# [3] = biological target: human MCP-1 (CCL2, natural L-form) (Homo sapiens) (UniProt P13500); test: SPR; conditions: L-RNA, 37 C, 1 mM Mg, 1 mM Ca
# Chain of human MCP-1 (CCL2, natural L-form) (Homo sapiens) (P13500 24-99): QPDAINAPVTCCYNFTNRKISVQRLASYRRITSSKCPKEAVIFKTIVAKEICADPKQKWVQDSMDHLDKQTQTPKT
# [4] = direct or competitive pull-down
# Chain of biotinylated human D-MCP-1 (mirror-image D-protein) (Homo sapiens) (P13500 24-99): as above
# Chain of biotinylated murine D-MCP-1 (mirror-image D-protein) (Mus musculus) (P10148 24-99): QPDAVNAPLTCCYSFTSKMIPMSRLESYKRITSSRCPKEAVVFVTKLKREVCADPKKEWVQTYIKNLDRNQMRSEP
Sequence,"pKd [1, 4]",pKd ([2]; stated for derivatives),other results
ACGCACGUCCCUCACCGGUGCAAGUGAAGCCGUGGCUCUGC [D-180-D1-012],> 9.00,–,–
ACGCACGUCCCUCACCGGUGCAAGUGAAGCCGUGGCUCUGCGU [D-180-D1-002],> 9.00,–,–
AGCGUGCCAGUGUGAUGGGGGGGCGCGACCCAUUUUACACGCU [D-176-C9trc],–,–,pKd ([1]; Type 1B): 8.30
AGCGUGCCCGGUGUGGUAGGGGGGCGCGACCUACAUUUGCACGCU [D-176-E10trc],–,–,pKd ([1]; Type 1A): 8.30
CGCACGUCCCUCACCGGUGCAAGUGAAGCCGUGGCUCUGCG [D-180-D1-035],> 9.00,–,–
CUGGUUACCGAGGGGGCGUCGUUGGAGUUUGGUUGGUUGUCACCAG [D-189-G7-002],–,> 9.00,–
GAGAUGGCGACAUUGGUUGGGCAUGAGGCGAGGCCCUUUGAUGAAUCCGCGGCCAUUC [D-188-A3-001],–,–,pKd [2]: > 9.00
GAUGGCGACAUUGGUUGGGCAUGAGGCGAGGCCCUUUGAUGAAUCCGCGGCCAUUC [D-188-A3-004],–,> 9.00,–
GCACGUCCCUCACCGGUGCAAGUGAAGCCGUGGCUCUGCG [D-NOX-E36 (D-180-D1-036)],–,–,"pKd ([1]; 37 C, selection buffer 1 mM Mg, 1 mM Ca): 9.84; pKd ([1]; room temperature, selection buffer 1 mM Mg, 1 mM Ca): 9.05"
GCACGUCCCUCACCGGUGCAAGUGAAGCCGUGGCUCUGCG [NOX-E36 (180-D1-036)],–,–,pKd ([3]; PioneerF1 chip): 9.05
GCACGUCCCUCACCGGUGCAAGUGAAGCCGUGGCUCUGCGU [D-180-D1-011],> 9.00,–,–
GCCGGCUACCGAGGGGGCGUCGUUGGAGUUUGGUUGGUUGUCGCCGGC [D-189-G7-008],–,> 9.00,–
GCCGGUUACCGAGGGGGCGUCGUUGGAGUUUGGUUGGUUGUCACCGGC [D-189-G7-007],–,> 9.00,–
GCGCGUACCGAGGGGGCGUCGUUGGAGUUUGGUUGGUUGUCCGCGC [D-189-G7-010],–,> 9.00,–
GCUGGUUACCGAGGGGGCGUCGUUGGAGUUUGGUUGGUUGUCACCAGC [D-189-G7-001],–,–,pKd [2]: > 9.00
GGCGACAUUGGUUGGGCAUGAGGCGAGGCCCUUUGAUGAAUCCGCGGCCAUU [D-188-A3-006],–,> 9.00,–
GGCGACAUUGGUUGGGCAUGAGGCGAGGCCCUUUGAUGAAUCCGCGGCCAUUC [D-188-A3-005],–,> 9.00,–
GGGCCUACCGAGGGGGCGUCGUUGGAGUUUGGUUGGUUGUCGGCCC [D-189-G7-012],–,> 9.00,–
GGGCGUAGUGAGAAACUACCAACGACUGGCUAGAGCCGGCCC [181-A2-018],–,–,pKd ([3]; CM4 chip): 9.43
GUGCGCGUAGUUAAAAACUACCAGCGACUGGCUAGAGCCGGCGCAC [D-178-D5-030],9.30,–,–
GUGCUGCGUAGUGAGAAACUACCAACGACUGGCUAGAGCCGGCAGCAC [D-181-A2],10.00,–,–
GUGCUGCGUAGUUAAAAACUACCAGCGACUGGCUAGAGCCGGCAGCAC [D-178-D5],9.30,–,–
UGGUUACCGAGGGGGCGUCGUUGGAGUUUGGUUGGUUGUCACCA [D-189-G7-003],–,> 9.00,–
